Source: publication PMC6377231, “Structure of a bacterial ATP synthase” (eLife, 2019)
Each block holds one binder with its values, some of them ahead of it.

Assays:
Experiment in all cases: cryo-EM structure; intact Bacillus PS3 ATP synthase in GDN, three rotational states at 3.0, 3.0 and 3.2 Å; focused refinement of the membrane-embedded region at 3.3 Å
[1] = target: T1, Bacillus PS3 ATP synthase subunit α (Bacillus PS3, UniProt P09219 1-502); conditions: both partners purified
T1 construct: ATP synthase subunit alpha of Bacillus PS3, expressed from plasmid pTR-ASDS (Suzuki et al., 2002); Three copies stand in the complex (α3β3γδε ab2c10); Residues in the model are in Supplementary file 1; also called αDP; source: E. coli strain DK8, plasmid pTR-ASDS; purified as part of the intact ATP synthase (GDN, HisTrap, Superose 6)

[2] = target: T2, Bacillus PS3 ATP synthase subunit γ (Bacillus PS3, UniProt P09222 5-286); conditions: both partners purified
T2 construct: ATP synthase subunit gamma of Bacillus PS3, expressed from plasmid pTR-ASDS (Suzuki et al., 2002); source: E. coli strain DK8, plasmid pTR-ASDS; purified as part of the intact ATP synthase (GDN, HisTrap, Superose 6)

[3] = target: the molecule itself

T1 sequence (P09219 whole entry): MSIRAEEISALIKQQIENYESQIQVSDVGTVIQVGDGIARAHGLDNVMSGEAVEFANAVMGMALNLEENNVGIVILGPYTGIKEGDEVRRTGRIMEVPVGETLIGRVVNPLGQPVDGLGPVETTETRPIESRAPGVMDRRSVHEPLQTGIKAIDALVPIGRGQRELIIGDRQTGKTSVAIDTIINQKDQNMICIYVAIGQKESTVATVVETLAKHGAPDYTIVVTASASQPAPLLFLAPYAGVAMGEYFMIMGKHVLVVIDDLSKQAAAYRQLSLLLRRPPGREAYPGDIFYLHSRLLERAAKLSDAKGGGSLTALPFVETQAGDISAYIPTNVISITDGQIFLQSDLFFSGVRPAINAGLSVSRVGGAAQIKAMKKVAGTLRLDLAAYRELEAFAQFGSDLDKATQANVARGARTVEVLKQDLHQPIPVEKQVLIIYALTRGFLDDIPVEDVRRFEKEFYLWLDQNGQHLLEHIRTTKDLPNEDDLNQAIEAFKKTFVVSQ
T2 sequence (P09222 5-286): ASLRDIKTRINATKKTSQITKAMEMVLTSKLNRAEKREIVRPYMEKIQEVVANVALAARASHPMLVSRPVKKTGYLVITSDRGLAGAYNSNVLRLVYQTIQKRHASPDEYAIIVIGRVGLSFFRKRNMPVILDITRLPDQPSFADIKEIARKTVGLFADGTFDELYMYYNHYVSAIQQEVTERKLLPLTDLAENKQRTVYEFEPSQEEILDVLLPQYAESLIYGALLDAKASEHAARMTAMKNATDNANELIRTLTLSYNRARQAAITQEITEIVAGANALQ

binding result [1]: binds
binding result [2]: binds
B1: Bacillus PS3 ATP synthase subunit ε (natural protein, UniProt P07678 1-132, looked up)
chain: MKTIHVSVVTPDGPVYEDDVEMVSVKAKSGELGILPGHIPLVAPLEISAARLKKGGKTQYIAVSGGFLEVRPDNVTILAQAAERAEDIDVLRAKARKSGRTPLQSQQDDIDFKRAELALKRAMNRLSVAEMK
notes: ATP synthase subunit epsilon of Bacillus PS3, expressed from plasmid pTR-ASDS (Suzuki et al., 2002); source: E. coli strain DK8, plasmid pTR-ASDS; purified as part of the intact ATP synthase (GDN, HisTrap, Superose 6)

B2: Bacillus PS3 ATP synthase subunit c (natural protein)
chain: MSLGVLAAAIAVGLGALGAGIGNGLIVSRTIEGIARQPELRPVLQTTMFIGVALVEALPIIGVVFSFIYLGR
notes: ATP synthase subunit c of Bacillus PS3, expressed from plasmid pTR-ASDS (Suzuki et al., 2002); Forms the ring of 10 c-subunits in the FO region; also called c-ring; c10-ring; source: E. coli strain DK8, plasmid pTR-ASDS; purified as part of the intact ATP synthase (GDN, HisTrap, Superose 6); copies: 10
stoichiometry N [3]: 10
